According to a protein production outcome set (Wang et al. 2014):

Test: label from the status in PepcDB records

Row | Sequence | protein production
1 | MNQLIFDFAAHDYPSFDKFLGTENAELVYVLRHKHGQFIYVWGEEGAGKSHLLQAWVAQALEAGKNAAYIDAASMPLTDAAFEAEYLAVDQVEKLGNEEQALLFSIFNRFRNSGKGFLLLGSEYTPQQLVIREDLRTRMAYCLVYEVKPLTDQEKIDALASMAAARQVTVDSEIFEYLLKHWRRDMDSLMMMLDTLDNYAVTMGKRITLPLLRQLLKQQETQLEHHHHHH | not failed
2 | MERPLESYKKEAAHAAIAYVQDGMVVGLGTGSTARYAVLELARRLREGELKGVVGVPTSRATEELAKREGIPLVDLPPEGVDLAIDGADEIAPGLALIKGMGGALLREKIVERVAKEFIVIADHTKKVPVLGRGPVPVEIVPFGYRATLKAIADLGGEPELRMDGDEFYFTDGGHLIADCRFGPIGDPLGLHRALLEIPGVVETGLFVGMATRALVAGPFGVEELLP | not failed
3 | MSGKRALITGIRGQDGAYLAKLLLEKGYEVYGADRRSGEFASWRLKELGIENDVKIIHMDLLEFSNIIRTIEKVQPDEVYNLAAQSFVGVSFEQPILTAEVDAIGVLRILEALRTVKPDTKFYQASTSEMFGKVQEIPQTEKTPFYPRSPYAVAKLFGHWITVNYREAYNMFACSGILFNHESPLRGIEFVTRKITYSLARIKYGLQDKLVLGNLNAKRDWGYAPEYVEAMWLMMQQPEPDDYVIATGETHTVREFVEKAAKIAGFDIEWVGEGINEKGIDRNTGKVIVEVSEEFFRPAEVDILVGNPEKAMKKLGWKPRTTFDELVEIMMEADLKRVRDREVSV | not failed
4 | MLQTIKRADSAVSIIGAGIAGAWQALLFAQAGHAVTLHERGDAAMTDSTSHWAGGMLAPWCEAEVAEPIISRLGQRSLDIWRRELPDTPFNGSLVVAHPRERNDFERFARMTEEHRRLDAASLAELEPSLEGRFRDALFFPTEGHVEPRRVLPKLHERIRAAGGTIKFSSDVSAADLDGIVIDCRGLSARDEQPDLRGVKGEMILIETSEVQLARPVRLIHPRWPLYVIPREDNLFMLGATSIEAEDTGVSVRSALELLGAAYTVHPAFGEARIVEFGSGLRPAFPDNLPRIGIRGGRITVNGLYRHGFLIAPALAELTLQYVQRGQIDNEVMQCG | failed
5 | MAERINPVVKAVLEWGPIAAFFLGYVKLKDETFTVAGTDYQGFIIVTAAFIPLMVICTGLLWWLSGKLSKMQVATVVLVVVFGGLSVWLNDDRFFKMKPTMIYLLFGVLLGIGLLRGQSWLRLVLEEAIPLQDEGWMILTRRVMAFFFALAIANEAVWRLMSTDAWVNFKTFGLPLAIFVFFMTQSGLFKRYNPERKDEA | not failed
6 | MALKTDIRGMIWRYPDYFIVGREQCREFARAVKCDHPAFFSEEAAADLGYDALVAPLTFVTILAKYVQLDFFRHVDVGMETMQIVQVDQRFVFHKPVLAGDKLWARMDIHSVDERFGADIVVTRNLCTNDDGELVMEAYTTLMGQQGDGSARLKWDKESGQVIRTALEHHHHHH | failed
7 | GDIGGIAQITSSLFLGRGSVASNRHLLQARGITCIVNATIEIPNFNWPQFEYVKVPLADMPHAPIGLYFDTVADKIHSVSRKHGATLVHCAAGVSRSATLCIAYLMKFHNVCLLEAYNWVKARRPVIRPNVGFWRQLIDYERQLFGKSTVKMVQTPYGIVPDVYEKESRHLMPYWG | failed
8 | MTEGLAVELAGLRSFSIVMPAYNVVTQRGERIFRETLESIAASCRYLQQHFPYTPEGELILISDGSTDRTCDVAMAGWPNAVPLQLVGLPTNVGIAAARNIGVRLAKGEVIFFCDADDLYRPEHLFLALSVLNQPLPEPYAPAYFGAVRTGVYCRDRLHPYWHKSLEQTLVLNLAVRREVHEFIGGFPEDEVFRQFRYGAEDVAYAYWLHQFCHTARLEQRTVEYRRFPNSVFDRQLKKFQAAPGTVADDLDEGDRQQEAQIRQIMATRLQELQAKAAQGVALEHHHHHH | failed
9 | MSLKKALFLILDQYADWEGVYLASALNQREDWSVHTVSLDPIVSSIGGFKTSVDYIIGLEPANFNLLVMIGGDSWSNDNKKLLHFVKTAFQKNIPIAAICGAVDFLAKNGLLNNHSHTGNFVYLWKDYKQYKPISSFVEKQAVRDKNLVTANGTAPIEFTNLILEMIDFDTPENIEKMMYMNRYGFYHFCDKYGNPFVEGHHHHHH | not failed
10 | MRDLLNDLSEGLSHPDPILRAQIQMQKPLPKRFYKDVTVADVEEGGFTILLDGKPLRTPAKKPLVAPSRALADLLRDEWDAQKEVVNPVVMPVSRHVNTAIDGIASDTQAVFEDILRFSSSDLLCYRAGDPEALVARQTDYWDPVLDWATNVLGARFILVEGVMHRDQPREAIAAFAVTLKKYDTPIALAALHTMTSLTGSAILALALAEGELTLEEAWALAHLDEDWTAEQWGEDEEALERRAVRLIDMRAALNVLESLKSAS | not failed
11 | MFNFAVSRESLLSGFQWFFFIFCNTVVVPPTLLSAFQLPQSSLLTLTQYAFLATALACFAQAFCGHRRAIMEGPGGLWWGTILTITLGEASRGTPINDIATSLAVGIALSGVLTMLIGFSGLGHRLARLFTPSVMVLFMLMLGAQLTTIFFKGMLGLPFGIADPNFKIQLPPFALSVAVMCLVLAMIIFLPQRFARYGLLVGTITGWLLWYFCFPSSHSLSGELHWQWFPLGSGGALSPGIILTAVITGLVNISNTYGAIRGTDVFYPQQGAGNTRYRRSFVATGFMTLITVPLAVIPFSPFVSSIGLLTQTGDYTRRSFIYGSVICLLVALVPALTRLFCSIPLPVSSAVMLVSYLPLLFSALVFSQQITFTARNIYRLALPLFVGIFLMALPPVYLQDLPLTLRPLLSNGLLVGILLAVLMDNLIPWERIE | failed
12 | MSRDEVLTRMRRFGPLAVVAVLCAAAFASGLVEHISLEELRLRGTQLQAFAHENPLLCAAIYLAVYVGTVAISLPGALILSLTGGFLFGPIGGGLAAVTGATGGSTVTFLVFRTAFGEALPFKSSAFIARIAEGLKGDAFNYLLTLRLIPAFPLLAVNVAAGVMNVRVRTFLLASVLGMIPSSFVYAGIGAGLGHVFAKGGPVTVESLLSPRIYLPIIGMGVLAFLPPLWRHWRNGRDVASLDEK | failed
13 | MISKHQAVKKIFDQISDKYDLIDTIISLGLDQRWRRSLISNLKLMPGLQCLDCGAGSGKVTELIMESCDSCSVTALDITDSMFNPELTKRCKFVVSPAESLPFSDETFDRVSSAFLTRNLADVDKYFSEVYRVLKPGGIFVNLDIFNPTKPVFSQFFSLYFYRMVPFFGNHATHSRNYSYLANSVKFFYSPFILSKKLESKGFIVEPKDLFFGSVFMHIAQKKLEHHHHHH | not failed
14 | MAHLVITIGCEYGAKGNQIGKKVAKDLGIKFYDRDTVDEIIKEVGIPKDIMEKVEEGITIAGKGAEGDVRGSFSKYADLTERAIHVQKTIIRKLSDRESCVIIGRSADYILKEHKPILRIFIYSPDEVRIENVMKSHNLSEDDAKLFITEKDKRYHKRHMALTGSNRGDRHNRDMLIDSSLLGVDGTAELIESLARKVVENESKTEAGGDK | not failed
15 | MLTLALCIMILFTYLCMFFNFKYSAHLSIYISQVILGYVVIIIHIGEHTLPIDILVVMSLGALLLHIKHKHLMQNRMSALFLKRLYYVAFKLVVFTLACFYISLIPIGINVIFLWISAISFSALFTFICYMMCSSNFLNLNNKPDFDVILVLGAGIFTENVTPMLASRLDRALTLYVQQPNAKFIVSGGQGPDEPISEALAMKRYLIHHGVESNHIMLEDQSTSTSENIQFSKSLIESHFECVPKIVCVTSQFHIMRALRFGQKFNLKLTGVGSHTPYHFFEIALIRDFLALMYQYKLLLTVYFAALFFICIITYWFIPSIPL | failed
16 | MMSSSRRSFMAAGLVVVLAVAALIFGAPGPVPLSAGSSMSDRGAADTAEAPPKSSWAGRQFRDMTLDEKIAQLFVVRIDGEFQNANTPSYRETVALVEEFGAGGLIFGPGTPMTQIAMANDLQAKAERPLLVAQDTEWGVGMRIDAATSFPPAMAIGATRDASHAYRVGYATAREARALGVHQLYAPVADVNNNPKNPIINVRSFGESPSLVGTMASAFTRGAQRGGTLATVKHFPGHGDTDVDSHINLPVLRFDRSRLDSLELPPFRQAFDAGVRSVMTGHLALPEIAADSVPATLSRPLTHGLLREELGFDGLVVTDALNMQAVTRTFGVGETAVRVLEAGADLVLMSTNPHAAHQAVRQAVTSGRIDTTEINDSVRRLLRVKQDLRLHETRRVSLDTTRHRVAQRSHEVLARTVARESLTLLANADSLLPLTPPEQHDALVVTLSDSEYPGTGDTFVDRLRAQPAIETLDTRRLDPRSDSTDVNDHLADAADYDVVVVPSFLRVQAWSGSIGLSDMHHDFLEDLAGTDTPVAFVAFGNPYAPTGLEPAPDAILAAYGSGEASQRAAAQALGGGAGTPGRLPVTIPGVAEKGEGRRLAPVAPREGPPESVGMDGAQLARLDTLLRSAMLDGAFPGAAVAVGRGPALARLDAYGYHTYDETKPVQTGTQYDLASLTKVVATTTAVMKLYEADSLELDAPVARYLPDFAQNGKEAVTVRQLLTHSSGLKPYLDPDERGPTRAALLDTLMAQPLTYTPGTRSTYSGLNAIALMRIVETISGRPFDAFCRTHIFEPLGMDQTGFYDTDVTRAWVAPTTDTAGTRRRGSVHDPMARDMDGVSGNAGLFSTAADLARFGYMLTHEGRIDGRQFLEPKTIETFTAQADVPGSTRALGWDTKSAEGYSSAGDEFSAASFGHTGYTGTSFWVDPAEDLFFVLLTNRVYPDDTADRITQVRPRAADIVHRAIDGPPRPLLPGPAPEQ | failed
17 | MVDELFCPQCGMLKRRCKCRKRSIRQRNLELLKKVGYKEFLLPLFDTDDEIVLYKVLRPFREKPTEELDFLPSELASCLRKRGIGRLYPFQKEAMIRLMEGRDVVITAPTGFGKTEAFAVPMLWRALHGGKAMVFYPTKALARDQEEKIKFYTSSLGLRAVRFDGDSGREERRAVLSGKCDIILTNPDMVDYHLRNTPAFRRICRELSFIAVDELHTYTGVLGSNMHYLVKRLSRFAEFQIACASATLSNAAEFAEELFDRDFVLVSGEHRKGTLHLIFRYTPSLYSAVREIVTALRNRKIIVFGNSYKSVETINLILRRHGLKSAIHKSGLPKEVREEVEAKFKRGEINIVVSTPTLELGVDIGDVDVVVSELVPYGQMIQRVGRAGRKGQESVGVVILREDDSISTYYRTKPEDYFKEEANGYVERHNEEVMKFQLISMCIEKPVRLEELDRQSAEIMQKLQAQGIVVEREGAFHPTAKAIELSRAFSFRGIGDAVKIYHDGKYIGERALPIAVKELFPGSILVHNGVRYRTVELDLKRLRAEVVELDYGNEITDPLYMTIPRIIEVEDEIEEPVNAVYCSIEINYLVHGYIERDVFDRERKAFHYLDEPVSYTFKTKGFLFSAPFPDPADYEDYYAGSFHALEHVIIETTDAITGGGSREMGGISVPEGDIFVYDASVGGSGLSKLLFKRLRRAFEISKTILESCDCGRVDGCPKCTYSYQCGNNNQPLNRIGALNIAEKVIKGVKRKTDWRKYTDVIEIRYFPLEHHHHHH | failed
18 | MELTILILLLPFLSFLILGIGGKWMSHRTAGAIGTLILGAVVVLSYVTAFQYFSAPRLEDGTFATLIPYNFTWLPFTETLRFDLGILLDPISVMMLIVISTVSLMVHIYSFGYMKGETGFQRYYAFLSLFTMSMLGLVVATNIFQMYLFWELVGVSSYLLIGFYYTKPAAIAASKKAFIVTRFADLGFLIGILIYGYYGGTFGFTPDTVSLISGGASMLPLALGLMFIGGAGKSAMFPLHIWLPDAMEGPTPVSALIHAATMVVAGVYLVARMFPLFIAYAPDTLHMIAWVGAFTAFYAASVACVQSDIKRVLAFSTISQIGFMMVALGVCTSMDPHHGGLGYMASMFHLFTHAMFKALLFLGAGSIIHAVHSNEMSAMGGLRKYMPITHWTFLIACLAIAGIPPFSGFFSKDEILAACFQYSPAMGWVMTVIAAMTAFYMFRLYYGIFWGAEPPRASSHSDHSTPHGNLEAAPCRPHESPLAMTFPLIFLAVVTCLAGFIPFGHFISSNGESYSIHLDLSVAVTSVVIAIISIGIATWMYKNAKQPVANALAKRFNGLWTAAYHRFYIDDIYQFITHKIIFRCISTPIAWFDRHVVDGFFNFLAWATNTTSDEIRGLQSGQVQQYAYVFLCGALALILLLVL | failed
